Measurements as given in publication PMC3630172.

What follows are sequences tested on GST-rPfPuf2 (Plasmodium falciparum) (assay: EMSA). Conditions: LightShift RNA EMSA binding buffer (salt, pH not given), 5% glycerol, 2 ug tRNA per 20 ul, RNase inhibitor, 2.5 nM RNA, 0.25-400 nM rPfPuf2, room temperature ….

Sequence	Kd [nM]
GAAAUGUUCUUUUCCAAUUAUAUUUUGUUCGAUGAUUC [pfs28 RNA1M]	143
GAAAUGUUCUUUUGUAAUUAUAUUUUGUUCGAUGAUUC [pfs28 RNA1]	6.7
UUCUCAUUUCCUAAUAAAUUGUUGUGAAAACAA [pfs25 RNA1M]	169
UUCUCAUUUGUUAAUAAAUUGUUGUGAAAACAA [pfs25 RNA1]	11.5
